We go through 10 substances from article PMC3419264, “ATPase Site Architecture Is Required for Self-Assembly and Remodeling Activity of a Hexameric AAA+ Transcriptional Activator” (Molecular Cell, 2012).

The subject of the data set is T1, Nc1ncnc2c1ncn2[C@@H]1O[C@H](COP(=O)(O)OP(=O)(O)OP(=O)(O)O)[C@@H](O)[C@H]1O.
T1 construct: AAA+ domain, residues 1-275; purified as in Joly et al. 2006; hexamer
The data set can be described thus: steady-state ATPase assay, NADH-coupled regeneration system. The data set is classed as biochemical, Escherichia coli. The settings on record: 37 °C, without σ54, turnover given as Vmax (min^-1), maximal error 10%. The source says:
steady-state ATPase assay, NADH-coupled regeneration system on PspF1-275
As a reminder, the Km is the concentration of substrate that gives half-maximal velocity. A word on the kcat: it is the number of substrate molecules converted per active site and unit of time at saturation. For “PspF1-275 (Escherichia coli K-12; R162K)”, the Km worked out at 200 µM and the kcat worked out at 0.0313 ± 0.00483 s⁻¹.

For PspF1-275 (Escherichia coli K-12; E43Y), the Km is reported as 1,250 μM and the kcat was found to be 0.0415 ± 0.00283 s⁻¹.

As to PspF1-275 (Escherichia coli K-12; E43A), the Km turned out to be 750 µM and the turnover number (kcat) was 0.0228 ± 0.00167 s⁻¹.

On to PspF1-275 (Escherichia coli K-12; L44A), for which the Km turned out to be 310 µM and the kcat stood at 0.3027 ± 0.0403 s⁻¹.

For PspF1-275 (Escherichia coli K-12; E43D), the Km turned out to be 250 µM and the kcat was 0.371 ± 0.08 s⁻¹.

For “PspF1-275 (Escherichia coli K-12; E118D)”, the Km stood at 800 µM and the kcat amounted to 0.3372 ± 0.0617 s⁻¹.

Consider “PspF1-275 (Escherichia coli K-12; Y126A)”, for which the Km was 650 µM and the kcat was 0.1992 ± 0.0295 s⁻¹.

For “PspF1-275 (Escherichia coli K-12; R122A)”, the Km was 300 µM and the kcat was 0.021 ± 0.0005 s⁻¹.

With “PspF1-275 (Escherichia coli K-12; R162A)”, the Km turned out to be 90 µM and the kcat amounted to 0.003 ± 0.00033 s⁻¹.

For the substance PspF1-275 (Escherichia coli K-12; L9A), the Km is 2,300 μM and the kcat was 0.3453 ± 0.0425 s⁻¹.
